These results are taken from the nanobody polyreactivity screen of Harvey et al. (2022).

A short description of this data set: yeast display, Sf9 membrane polyspecificity reagent, FACS + sequencing; frameworks hold sequencing errors. The essentials: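 Sorting gates, low and high (top ~1%), were placed on anti-HA fluorescence to track expression and on streptavidin fluorescence to track reagent binding. A clone's polyreactivity label is taken from the gate it came out of. The reagent was 10% biotinylated, detergent-solubilized Sf9 membrane, applied for 1 hour at 4 °C to galactose-induced yeast display cells.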
Turning to “QVQLVESGGGLVQAGGSLRLSCAASGRTLSHYAMGWYRQAPGKERELVAAITRSGGSTYYADSVKGRFTISRDYAKNTVYLQMNSLKPEDTAVYYCNKTLYTTYDYWGQGTQVTVSS”, the “polyreactivity (PSR sort gate)” value is on record as “low polyreactivity”.

With “QVQLVESGGGLVQAGGTLRLSCAASGLISYFYGMGWYRQAPGKERELVAGIDTGSSTNYADSVKGRFTISRDNAKNTVYLQMNSLKPEDTAVYYCAADSVSKYGSDYWGQGTQVTVSS”, the “polyreactivity (PSR sort gate)” value is given as “low polyreactivity”.

Regarding “QVQLQESGGGLVQAGGSLRLSCAASGYISHADEMGWYRKAPGKEHELVASISNGGSTNYADSVKGRFTISRDNAKNTVYLQMNSLKSEDTAVYYCAAWTGQVDIHYYWGMGTQVTVSS”, the “polyreactivity (PSR sort gate)” value is “low polyreactivity”.

With “QVQLVESGGGLVQAGGSLRLSCAASGRIFLRNAMGWFRQAPGKERELVAAIRGSGGSTYYADSVKRRFTISRDHAKTTVYLQTNSLKPEDTPVYYCAVASYYRYSHTYGYWGQGTQVTVSS”, the “polyreactivity (PSR sort gate)” value is reported as “high polyreactivity”.

Regarding “QVQLVESGGGLVQAGGSLRLSCAASGSIIYGYAMGWYRQAPGKERELVASISSGGSTNYADSVKGRFTISRDNAKNTVYLQMNSLKPEDTAVYYCAAYFQRSGFSFRLRGQGTQVTVSS”, the “polyreactivity (PSR sort gate)” value is recorded as “high polyreactivity”.

Take “QVQLVESGGGLVQAGGSLRLSCAASGSIFVWNALGWYRQAPGTERELVAAISYTDGSTYYADSVKGRFTISRDNATNTVYFQMNSLKPEVTAVYYCNAYPASRGPGNPLDDYWGQGTQVTVSS”: the “polyreactivity (PSR sort gate)” value is reported as “low polyreactivity”.

“QVQLVESGGGIVQAGGSLRLSCAASGSIFSTNAMGWYRQAPWKERELVAAIDITNYADSVKGRFTISRDNAKNTVYLQMNSLKPEDTAVYYCNADTYSVVREGDYWGQGTQVTVSS”: the “polyreactivity (PSR sort gate)” value is given as “low polyreactivity”.

“QVQLLESGGGLVQSGGSLRLSCADSGNIFVTYAMGWYRQAPGKESELVAGITSSDDSTYYADSVKVRFTISLDNAKNTVYLQMNSLKPEDTAVYYCATYYWEVGIGQFYYWGQGTQVTVSS”: the “polyreactivity (PSR sort gate)” value is given as “low polyreactivity”.

For the sequence “QVQLVESGGGLVQAGGSLRLSCAASGITLRLYAMGWYRQAPGKERELVAAISKRGGSTYYADSVKWRFTISRDNAKNTVYLQMNSQKPEDTAVYYCAADSGWEHRYDYWGQGTQVTVSS”, the “polyreactivity (PSR sort gate)” value is recorded as “high polyreactivity”.

Regarding “QVQLVESGGGLVQAGGSLRLSCAASVGTFRRYAKGWYREAPGKERELVAAISWTGGSTYYADSVKGRFTISRDNAKNNVYLQMNSLKPEDTAVYYCAAVGSSSSKGGYWGQGTQVTVSS”, the “polyreactivity (PSR sort gate)” value is on record as “high polyreactivity”.

Take “QVQLQESGGGLVQAGGSLRMICAASGYISACRQMGWYRKAPGKEREFVATINGGATTNYADSVKGRFTISRDNAKNSVYLQMNSLKPEDTAVYYCAAVIWYVQDYTYWGQGAQVTVSS”: the “polyreactivity (PSR sort gate)” value is on record as “high polyreactivity”.

Regarding “QVQLVESGGGLVQAGGSLRLSCAASGSIFYLYAMGWYRQAPGKERELVAAITSIGGSTYADSVKGRFTISRDNAKNTVYLQMNSLKPEDTALYYCNTDEYPLTVQVQYYYWGQGTQVTVSS”, the “polyreactivity (PSR sort gate)” value is recorded as “low polyreactivity”.

In the case of “QVQLVESGGGLVQAGGSLRLSCAASGRTFRYYAMGWYRQAPGKERELVAAITSGGSTYYADSVKGRFTISRDNAKNTVYLQMNSLKPEDTAVYYDYWGQGTQVTVSS”, the “polyreactivity (PSR sort gate)” value is “low polyreactivity”.

“QVQLVESGGGLVQAGGSLRLSCAASGLIFKRYAMGWYRQAPGKERELVAAISSGTRTYYADSVKGRFTISRDNAKNTVYLQMNSLKPEDTAVYYCAARLDYWGQGTQVTVSS”: the “polyreactivity (PSR sort gate)” value is “high polyreactivity”.

With “QVQLVESGGGLVQAGGSLRLSCAASGITFNVYAMGWYRQAPGKERELVAAISYNGGRTYYADSVKGRFTISRDNAKNTVYLPMNSLKPEDTAVYYCAAQWPWGPYDYWGQGTQVTVSS”, the “polyreactivity (PSR sort gate)” value is “high polyreactivity”.

Take “QVQLVESGGGLVQAGGSLLLSCAASGITSWYYVMGWYRQAPGKERELVAAITRSGGSTYYADSVKGRFTISRDTAKNTVFLQMNSLKPEDTAVYYCAARSYPQRWTTYPYGYWGQGTQVTVSS”: the “polyreactivity (PSR sort gate)” value is “high polyreactivity”.

For “QVQLVESGGGLVQAGGSLRLSCAASGRIFLVYAMGWSRPAPGKERELVAAISYSGGRTYYADSVKGRFTISRDNAKNTVYLQMNSLKPEDTAVYYCAASPRYSYLAQGLDYDYWGQGTQVTVSS”, the “polyreactivity (PSR sort gate)” value is “high polyreactivity”.

As for “QVQLVESGGGLVQAGGSLRLSCAASGSILNNYAMGWYRQAPGKERELVAAISSSGGTNYADSVKGRFTISRDNAKNTVYLQMYSLKPEDTAVYYCNADVLDGGYDYWGQGTQVTVSS”, the “polyreactivity (PSR sort gate)” value is “low polyreactivity”.

Take “QVQLVDSGGGLVQAGGSLRLSCAASGIISIVYAMGWYRQAPGKERELVAAISSGGSTYYADSVKGRFTISRDNAKNTVYLQMNRLKPEDTAVYYCATAYRYPPNAYFQRMDSWGQGTQVTVSS”: the “polyreactivity (PSR sort gate)” value was “high polyreactivity”.

For “QVQLVESGGGLDQAGRSLRLSFAASGRTFDLYPMGWYRQAPGKERELVAAITNGETYADSVKGRFTISLDDAKNTVYLQMNSLKPEDTAVYYCAKYDPWFWRAEDYWGQGTQVTVSS”, the “polyreactivity (PSR sort gate)” value was “low polyreactivity”.

Take “QVQLVESGGGLVQAGGSLRLSCAASGFIFGYNAMGWYRQAPGKERELVAAITWIGGTTYYADSVKGRFTISRDNAKNTVYLQMNSLKPEDTAVYYCARQRSYGRSSYSYGYDYWVQGTQVTVSS”: the “polyreactivity (PSR sort gate)” value is given as “high polyreactivity”.

Take “QVQLVESGGGLVQGGGSLRLSCDASGLTFPSNAMRWYRQATAKERELVASINRRGTSTFYADSVKGRFTISRDNAKNTFYLQMNSMKPEDTAVYYCNAYEGAAIRSTGRYDYWGHGTQVTVSS”: the “polyreactivity (PSR sort gate)” value is recorded as “low polyreactivity”.

On to “QVQLVESGGGLVQAGGSLRLSCAASGLIFSSYAMGWYSQAPGKERELVAAITSGGNTNYADSVKGRFTISRDNAKNTVYLHMNSLKPEDTAVYYCSAVWWTYVAAPGYDYWGQGTQVTVSS”, for which the “polyreactivity (PSR sort gate)” value is “low polyreactivity”.

With “QVQLVESGGGLVQAGGSLRLSCAASGSTFSAYTMGWDRQAPGKERELVAAIRFDGGRTYYADSVKGRFTISRDNAKNTVYLQMNSLKPEDTAVYYCPAWQSYSYDYWGQGTQLTVSS”, the “polyreactivity (PSR sort gate)” value is listed as “high polyreactivity”.

On to “QVQLVESGGGLEQAGGSLRLSCAASGITLRVNAMGWYRQAPGKERELVAAITRGTNTYYADSVKGRFTISRDNAKNTVYLQMNSLKPEDTAVYYCAARLPYNAIGYYYWGQGTQVTVSS”, for which the “polyreactivity (PSR sort gate)” value was “low polyreactivity”.

“QVQLVESGGGLVQAGGSLRLSCAASGSIFESNAMGWYRPAPGKEREFVAAIDQNDGSTNYADSVKGRFTISRDHAKNTVYLQMNSLKPEDTAVYYCAKYWGYLGYYEFDYWGQGTQVTVSS”: the “polyreactivity (PSR sort gate)” value is “low polyreactivity”.

Consider “QVQLVESGGGLVQAGGSLRLSCAASGRTSYYAMGWYRQAPGKERELVAAINSGDSTTYADSVKGRFTISRDNAKNNVYLQMNSLKPEDTAVYYCATALYDWYSLEFDYWGQGTQVTVSS”, for which the “polyreactivity (PSR sort gate)” value is “low polyreactivity”.

As to “QVQLVESGGGLVQAGGSLRLSCAAYGRIFYYNRMGWYRQAPGKERELVADISFSDGSTYYADSVKGRFTISRDIAKNTVYLQMNSLKPEDTAVYYCAAVIGYDYDYWGQVTQVTVSS”, the “polyreactivity (PSR sort gate)” value is on record as “low polyreactivity”.

As for “QVQLVESGGGLVQAGGSLRLSCAASGSIFGYYAMGWYRQAPGKERELVAAINRDGGSTYYADSVKGRFTISRDNAKNTVYLQMNSLKPEDTAVYYCAAVVRRPGPGRMDYWGQGTQVTVSS”, the “polyreactivity (PSR sort gate)” value is on record as “low polyreactivity”.

For the sequence “QVQLVESGGGLVQAGGSLRLSCAASGRIFTGNAMGWYRQAPGKERELVAAITGRGGNTYYADSVKGRFTISRDNAKNTVYLQMNSLKPEDTAVYYCAKVFFHTPIVPEFEYWGQGTQVTVSS”, the “polyreactivity (PSR sort gate)” value is given as “low polyreactivity”.
